In US20030157712A1, “Methods for determining cell responses through EphB receptors” (priority 1997, published 2003) one finds % attached P19 cells in wells preadsorbed with ligand and fibronectin data, which are given here for 1 substance.

This test has as its target endogenous EphB1 receptor of P19 cells (teratocarcinoma-derived, pluripotent murine cells) (murine) (UniProt Q8CBF3). The test can be described thus: cell-based or functional assay.

Chain of endogenous EphB1 receptor of P19 cells (teratocarcinoma-derived, pluripotent murine cells) (murine) (Q8CBF3 18-984): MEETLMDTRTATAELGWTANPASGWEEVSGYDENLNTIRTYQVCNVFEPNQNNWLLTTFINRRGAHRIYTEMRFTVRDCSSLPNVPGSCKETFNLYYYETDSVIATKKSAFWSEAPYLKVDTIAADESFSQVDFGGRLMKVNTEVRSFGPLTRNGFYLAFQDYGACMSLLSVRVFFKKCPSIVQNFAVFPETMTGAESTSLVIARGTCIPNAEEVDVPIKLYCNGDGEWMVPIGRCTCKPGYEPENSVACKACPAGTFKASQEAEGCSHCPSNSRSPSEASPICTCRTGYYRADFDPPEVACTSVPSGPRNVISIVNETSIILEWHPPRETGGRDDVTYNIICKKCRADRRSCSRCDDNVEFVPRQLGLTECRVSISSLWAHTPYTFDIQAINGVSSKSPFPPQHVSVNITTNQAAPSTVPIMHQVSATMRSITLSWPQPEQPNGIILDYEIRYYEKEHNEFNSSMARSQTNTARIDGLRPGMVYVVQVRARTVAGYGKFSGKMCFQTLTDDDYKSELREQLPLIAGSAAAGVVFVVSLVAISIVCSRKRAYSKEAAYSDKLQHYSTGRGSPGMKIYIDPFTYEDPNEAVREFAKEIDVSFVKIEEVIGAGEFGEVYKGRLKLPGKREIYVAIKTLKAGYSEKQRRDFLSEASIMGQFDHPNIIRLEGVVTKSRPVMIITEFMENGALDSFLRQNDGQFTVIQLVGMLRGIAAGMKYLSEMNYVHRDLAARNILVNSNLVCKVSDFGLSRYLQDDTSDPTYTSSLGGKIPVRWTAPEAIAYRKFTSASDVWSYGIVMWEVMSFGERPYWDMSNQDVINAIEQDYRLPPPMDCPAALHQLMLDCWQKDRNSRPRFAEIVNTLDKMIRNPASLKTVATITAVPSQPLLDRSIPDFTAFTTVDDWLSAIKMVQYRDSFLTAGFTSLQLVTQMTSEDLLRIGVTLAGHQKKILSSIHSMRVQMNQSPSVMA

Regarding “preclustered multimeric ephrin-B1/Fc (ephrin-B1/Fc + anti-Fc) (from UniProt P98172 28-237; P01857 99-330) (Fc fusion)”, the % attached P19 cells in wells preadsorbed with ligand and fibronectin was determined as 60%.
